Substitutions are numbered along the chain they refer to.
T1: human TROP2 cysteine poor domain (CPD), recombinant (human, UniProt P09758 147-274)
T1 sequence: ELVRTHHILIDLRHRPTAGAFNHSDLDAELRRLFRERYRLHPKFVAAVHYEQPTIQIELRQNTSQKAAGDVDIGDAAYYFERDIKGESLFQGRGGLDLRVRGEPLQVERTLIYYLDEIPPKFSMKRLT

T2: HEK-TROP2 Δ27-36
T2 construct: also called TROP2 delta 27-36
T2 membrane protein on transfected HEK cells: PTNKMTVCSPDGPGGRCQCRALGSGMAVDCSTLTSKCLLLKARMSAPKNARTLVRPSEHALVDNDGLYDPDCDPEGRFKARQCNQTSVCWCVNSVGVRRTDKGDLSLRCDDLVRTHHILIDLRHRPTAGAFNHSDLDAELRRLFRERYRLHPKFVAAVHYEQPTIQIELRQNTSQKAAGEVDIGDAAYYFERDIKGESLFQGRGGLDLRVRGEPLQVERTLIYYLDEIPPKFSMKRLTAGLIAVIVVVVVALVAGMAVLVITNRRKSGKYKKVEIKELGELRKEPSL

T3: HEK-TROP2 Δ27-96 (human, UniProt P09758)
T3 construct: deletion of residues 27-96, transiently expressed on HEK cells
T3 sequence (membrane protein on transfected HEK cells, looked up): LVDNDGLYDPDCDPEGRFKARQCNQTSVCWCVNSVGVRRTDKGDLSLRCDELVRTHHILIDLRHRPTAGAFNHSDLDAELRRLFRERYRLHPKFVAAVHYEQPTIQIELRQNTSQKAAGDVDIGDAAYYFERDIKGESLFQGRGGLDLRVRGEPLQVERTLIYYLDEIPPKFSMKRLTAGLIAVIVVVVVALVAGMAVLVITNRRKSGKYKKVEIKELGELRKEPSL

T4: recombinant human TROP2 extracellular domain (aa 1-274) comprising His tag (human, UniProt P09758 27-274)
T4 construct: Used here for all assays on recombinant human TROP2 (ELISA, immunoblot, SPR, crystal), although only some of them name the catalogue number; also called human recombinant TROP2; recombinant human TROP2 protein; not shown: His tag
T4 sequence: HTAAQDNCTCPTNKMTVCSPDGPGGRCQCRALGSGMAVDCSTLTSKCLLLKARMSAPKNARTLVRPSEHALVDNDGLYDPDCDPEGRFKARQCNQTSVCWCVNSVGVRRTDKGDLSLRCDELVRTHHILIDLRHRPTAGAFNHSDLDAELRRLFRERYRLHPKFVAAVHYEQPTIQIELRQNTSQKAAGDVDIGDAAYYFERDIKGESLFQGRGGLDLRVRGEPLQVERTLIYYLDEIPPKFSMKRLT

B1: KD002 (antibody, human IgG1, V domains shown)
VH: QVQLQESGGGMVQVGGSLRLSCAASGFPFSSADMSWVRQAPGKGPEWVSYINADGSKTYYPDSVKGRFTISRDNAKNTLYLLMNNLKPEDTALYRCARAKLTDTHYVEDYWGQGTQVTVSS
notes: also called anti-TROP2 sdAb KD002
B2: KD003 (antibody, human IgG1, V domains shown)
VH: B1 VH with V14P, P28T, S31N, A32Y, D54G, K57N, Y59D, T78M
notes: also called anti-TROP2 sdAb KD003
B3: KD001 (antibody, human IgG1, V domains shown)
VH: QVQLQESGGGMVHPGGSLRLSCAASGFTFSGSDMSWVRQAPGKGPEWVSYITSGGTTYYPDSVKGRFTISRDNAKNTLYLQMNSLTPDDTALYRCAKARLTDSHYVEDAWGQGTQVTVSS
notes: also called anti-TROP2 sdAb KD001
B4: KD004 (antibody, human IgG1, V domains shown)
VH: B3 VH with M11L, H13Q, G16R, S53G, G54S, I69T, T77M, T86K
notes: also called anti-TROP2 sdAb KD004
B5: KD005 (antibody, human IgG1, V domains shown)
VH: B3 VH with M11L, H13E, P14A, T86K, A98S
notes: also called anti-TROP2 sdAb KD005
B6: KD007 (antibody, human IgG1, V domains shown)
VH: QVQLQESGGGLVQPGGSLRLSCAASGFAFSFYAMAWYRQAPGKQRDMVATITAYGNTNYADSVKGRFTTSRDNAKNTVYLQMNSLKPEDTAVYVCNANLPSASHNYWGQGTQVTVSS
notes: also called anti-TROP2 sdAb KD007

Target: T1, human TROP2 cysteine poor domain (CPD), …
Assay: immunoblot, 1 µg/mL antibody, anti-human IgG-HRP
Procedure: Samples of recombinant proteins of human TROP2 extracellular domain (ECD) (Sino Biological, Cat. no. 10428-H08H) and human TROP2 cysteine poor domain (CPD) were prepared for SDS-PAGE analysis under reducing or non-reducing conditions with NuPAGE™ LDS Sample Buffer (ThermoFisher Cat. no NP0007) with NuPAGE™ Sample Reducing Agent (ThermoFisher Cat. no. NP0004) or without reducing agent. Samples under reducing condition were denatured by heating at 70° C. for 10 minutes. Samples (16 μL) were loaded onto 4-12% Bis-Tris mini-gels (1.5 mm, 15 wells) or 250 ng of samples were loaded onto 14% Tris-glycine mini-gels alongside a BSA standard. […] Gels were stained using GelCode™ staining reagent (Thermo Fisher, Cat. no. 24594).
Proteins were transferred to nitrocellulose membranes using the iBlot™ system (Thermo Fisher, Cat. no. IB301031) according to the manufacturer's instructions. Membranes were blocked by incubation in PBS/0.1% Tween™ 20/5% Milk for 1 hour at room temperature with shaking, followed by incubation with 1 μg/mL of Anti-TROP2 antibodies or the isotype control (IgG1 isotype) in 20 mL of PBS/0.1% Tween™ 20/5% milk. Membranes were washed three times for 10 minutes with PBS/0.1% Tween™ 20. Membranes were incubated with HRP-conjugated goat anti-human IgG antibody (Sigma-Aldrich, AP113P) diluted at 1:10000 in blocking buffer for 1 hour at room temperature with shaking. Membranes were washed three times for 10 minutes with PBS/0.1% Tween™ 20. The signal was visualized using Super Signal™ West Pico PLUS (Thermo Fisher, Cat. no. 34080) according to the manufacturer's instructions. Images were captured using the Azure Biosystem imaging system.

binding result | Binder
no binding (tested: 1 µg/mL) | B1
no binding (tested: 1 µg/mL) | B2
no binding (tested: 1 µg/mL) | B3
no binding (tested: 1 µg/mL) | B4
no binding (tested: 1 µg/mL) | B5

Target: T2, HEK-TROP2 Δ27-36
Assay: flow cytometry, 100 nM antibody, transiently transfected HEK cells, APC anti-human Fc
Procedure: (§1) To determine the effect of TROP2 truncations on the binding ability of anti-TROP2 sdAbs, the HEK parental cells were transiently transfected with human TROP2 mutants by lipofectamine. 24 hours after transfection, cells were collected and stained with anti-TROP2 antibodies (FIG. 13A and FIG. 13B). In brief, 1×10⁵ cells were incubated with an Fc receptor blocking antibody (1/100 dilution) for 10 minutes at room temperature. Anti-TROP2 antibodies were diluted in FACS staining buffer to 100 nM and added and incubated with cells for 30 minutes on ice. After washing three times with FACS staining buffer, APC-conjugated secondary antibodies recognizing the human Fc region (Biolegend, Cat #410712) were mixed with cells. After staining for 30 minutes, cells were washed three times, followed by resuspension into 100 μL of 7-Amino-Actinomycin D (7-AAD) solution (BD Biosciences, Cat #559925).

binding result | Binder
no binding (tested: 100 nM) | B6
binds | B1
binds | B2
binds | B3
binds | B4
binds | B5

Target: T3, HEK-TROP2 Δ27-96
Assay: as above
Procedure: as §1

binding result | Binder
no binding (tested: 100 nM) | B6
no binding (tested: 100 nM) | B1
no binding (tested: 100 nM) | B2
no binding (tested: 100 nM) | B3
no binding (tested: 100 nM) | B4
no binding (tested: 100 nM) | B5

Target: T4, recombinant human TROP2 extracellular …
Assay: competitive ELISA on coated recombinant human TROP2, competitor KD002-His (14285.7 pM per text), anti-His-HRP
Procedure: The epitope characterization was assessed by competitive ELISA (FIG. 8 and FIG. 9). Microplates were coated with human recombinant TROP2 at 4° C. overnight. After washing, plates were blocked with blocking buffer (PBS+2% BSA), for 1 hour at room temperature. Meanwhile, the dilution for anti-TROP2 VHH sdAbs was prepared with blocking buffer making two different dilutions depending on the tag. For sdAbs with His tag, the antibody was diluted to 28571.4 pM. For sdAbs without tag, antibodies were serially diluted from 2857142.9 pM to 0.29 pM (8 dilutions, 10×). After that, equal volume of the his-tagged sdAbs and serial diluted non-tagged sdAbs were mixed, to make the final concentration of his-tagged sdAbs 14285.7 pM and non-tagged sdAbs from 1428571.4 pM to 0.14 pM. After washing two times, the mixed antibody contents were added into the wells and the plates were incubated for 2 hours at room temperature. The HRP-conjugated anti-6× His was diluted to 1:5000 and added to the wells after washing three times. Any unbound conjugate was removed by washing after 1 hour incubation at room temperature, and the colorimetric reaction was performed by adding the same volume of Supersignal ELISA Pico Luminol/Enhancer and SuperSignal ELISA Pico Stable Peroxide Solution and detected on SpectraMax i3x Microplate Reader. Positive and negative controls were included in each plate.

IC50 (read off the curve) [nM] | Binder
~60 | B1
~40 | B2
~40 | B3
~40 | B4
~40 | B5
